Data reported in patent US6933284 (University of California, dated 2005).

Assays:
[1] = molecular target: T1, recombinant control LDL without the 'Leu-Leu' mutation (LDL generated by the unmodified apo-B100 P1 … (human, UniProt P04114 28-4563)); test: gel-mobility shift, data not shown
T1 construct: mature; Tested as an LDL particle
Description: (§1) Before the assay, the (^35S)biglycan and (^35S)versican preparations were dialyzed extensively at 4° C. against 10 mM HEPES, 150 mM NaCl, 5 mM CaCl_2, and 2 mM MgCl_2 (pH 7.4, Buffer A), and the protein concentrations were determined (BioRad Laboratories) with bovine gamma globulin as the standard. Increasing concentrations of LDL were incubated with approximately 2000 dpm of (^35S)biglycan or (^35S)versican for 1 h at 37° C. in a total volume of 20 μl of Buffer A. Three microliters of bromophenol blue:glycerol (1:1, v/v) was added to the samples, and 20 μl was loaded into wells of 0.7% NuSieve (FMC BioProducts) agarose gels prepared on Gel-Bond film (FMC BioProducts). Electrophoresis was run for 3 h at 60V with recirculating buffer (10 mM HEPES, 2 mM CaCl_2, 4 mM MgCl_2 pH 7.2) in a cold room. Gels were fixed with 0.1% cetyl pyridium chloride in 70% ethanol for 90 min, air-dried, and exposed to Hyper Film-MP (Amersham Life Sciences) at ^-70° C. The (^35S)biglycan or (^35S)versican complexed to LDL appears as a band at the […] with a Hewlett Packard Scan Jet II cx and ImageQuant software (Molecular Dynamics).
This procedure has the advantages that only microgram quantities of lipoproteins are required and the relative affinity of LDL binding to the proteoglycans can be determined at physiological ionic and pH conditions. […]

[2] = molecular target: T2, recombinant control LDL (human apo-B100 with leucine in place of glutamine at position 2153) (human, UniProt P04114 28-4563); test: summary table, proteoglycan binding (biglycan and versican were the proteoglycans tested)
T2 construct: mature; one apo-B100 per particle, with lipid; also called wild-type recombinant LDL; 'Leu-Leu' apo-B100 LDL

[3] = molecular target: T3, K3363E LDL (recombinant LDL, human apo-B100 with glutamic acid for lysine at residue 3363) (human, UniProt P04114 28-4563); test: gel-mobility shift, three independent experiments
T3 construct: mature; Tested as a purified LDL particle from transgenic mouse plasma
Description: as §1, with “The interaction between LDL and biglycan or versican was investigated by a gel-mobility shift assay (Camejo, G. et al. 1993. *J. Biol Chem.* 268:14131–14137). Before” for “Before”
(§2) This procedure has the advantages that only microgram quantities of lipoproteins are required and the relative affinity of LDL binding to the proteoglycans can be determined at physiological ionic and pH conditions. […] Of particular interest was that recombinant K3363E LDL interacted defectively with both versican and biglycan but had normal receptor binding.

[4] = molecular target: T4, RK3359-3369SA LDL (recombinant LDL, human apo-B100 with the arginines of Site B changed to serines and the … (human, UniProt P04114 28-4563)); test: gel-mobility shift, three independent experiments
T4 construct: mature; Tested as a purified LDL particle from transgenic mouse plasma; Q2153L follows from the statement that R3500Q is the only LDL without the 'Leu-Leu' mutation; also called recombinant LDL with the uncharged Site B
Description: as §1, with “The interaction between LDL and biglycan or versican was investigated by a gel-mobility shift assay (Camejo, G. et al. 1993. *J. Biol Chem.* 268:14131–14137). Before” for “Before”
as §2

human plasma LDL = molecular target: T5, human plasma LDL (human, UniProt P04114 28-4563, 125I-labeled where used as tracer in the receptor assay); test: gel-mobility shift, three independent experiments
T5 construct: mature; Native LDL particle; also called normal human plasma LDL
Description: as §1, with “The interaction between LDL and biglycan or versican was investigated by a gel-mobility shift assay (Camejo, G. et al. 1993. *J. Biol Chem.* 268:14131–14137). Before” for “Before”
as §2

[5] = molecular target: T3, K3363E LDL (recombinant LDL, human …); test: summary table, LDL receptor binding
[6] = molecular target: T2, recombinant control LDL (human apo-B100 …); test: summary table, LDL receptor binding
[7] = molecular target: T1, recombinant control LDL without the …; test: receptor-binding activity, details not given

Measured: binding result

B1: (35S)biglycan from cultured human arterial smooth muscle cells (other, UniProt P21810 38-368, looked up)
chain: DEEASGADTSGVLDPDSVTPTYSAMCPFGCHCHLRVVQCSDLGLKSVPKEISPDTTLLDLQNNDISELRKDDFKGLQHLYALVLVNNKISKIHEKAFSPLRKLQKLYISKNHLVEIPPNLPSSLVELRIHDNRIRKVPKGVFSGLRNMNCIEMGGNPLENSGFEPGAFDGLKLNYLRISEAKLTGIPKDLPETLNELHLDHNKIQAIELEDLLRYSKLYRLGLGHNQIRMIENGSLSFLPTLRELHLDNNKLARVPSGLPDLKLLQVVYLHSNNITKVGVNDFCPMGFGVKRAYYNGISLFNNPVPYWEVQPATFRCVTDRLAIQFGNYKK
modifications: glycosaminoglycan chains metabolically labeled with (35S)SO4
notes: Proteoglycan: core protein with glycosaminoglycan chains; also called pool 3
binds: [1] | [2] | [3] | [4] | human plasma LDL

B2: LDL receptor on normal human fibroblasts (receptor)
chain: not shown
notes: whole, on cells; also called LDL receptors
binds: [5] | [6] | [7]
